Measured values: publication PMC10858482

Target: SARS-CoV-2 Omicron BA.1 spike protein (SARS-CoV-2 (Omicron BA.1)) (UniProt P0DTC2)
Assay: cryo-EM structure; Tr67 and Omicron BA.1 spike mixed in a 1.5:1 weight ratio, 0.3 mg/ml; single-particle analysis, C3 symmetry, map at ~9 Å

“SARS-CoV-2 Omicron BA.1 spike protein (from UniProt P0DTC2 14-1273) (natural protein)” showed a stoichiometry N of 3.
